Laboratory results published in patent US20250296996A1 (BROADWING BIO, published 2025).

T1: P60 (huANGPTL7-Fibrinogen-his) (human, UniProt O43827 129-343)
T1 construct: also called human ANGPTL7 fibrinogen domain; not shown: C-terminal short linker and His tag
T1 sequence: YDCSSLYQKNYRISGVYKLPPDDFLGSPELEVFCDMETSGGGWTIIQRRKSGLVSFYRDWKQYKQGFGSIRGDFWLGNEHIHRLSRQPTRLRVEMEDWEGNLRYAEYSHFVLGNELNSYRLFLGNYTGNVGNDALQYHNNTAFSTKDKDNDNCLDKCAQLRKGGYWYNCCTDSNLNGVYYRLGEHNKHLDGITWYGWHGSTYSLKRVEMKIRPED

T2: P66 (rabbit ANGPTL7-his) (rabbit, UniProt G1T4P1 27-344)
T2 construct: mature; also called rabbit ANGPTL7 protein
T2 sequence: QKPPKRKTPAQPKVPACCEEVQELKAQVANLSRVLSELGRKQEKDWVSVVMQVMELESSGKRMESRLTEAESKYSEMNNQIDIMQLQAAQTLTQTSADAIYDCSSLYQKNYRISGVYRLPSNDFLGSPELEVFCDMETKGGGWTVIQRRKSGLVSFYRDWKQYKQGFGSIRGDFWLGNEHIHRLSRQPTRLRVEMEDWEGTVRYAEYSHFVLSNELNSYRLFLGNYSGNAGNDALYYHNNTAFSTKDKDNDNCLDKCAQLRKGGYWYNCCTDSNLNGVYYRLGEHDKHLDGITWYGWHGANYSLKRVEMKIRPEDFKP

T3: muANGPTL7-his (R&D Systems) (mouse, UniProt Q8R1Q3 22-337, limits assumed)
T3 construct: Bought protein; also called mouse ANGPTL7 protein
T3 sequence (looked up): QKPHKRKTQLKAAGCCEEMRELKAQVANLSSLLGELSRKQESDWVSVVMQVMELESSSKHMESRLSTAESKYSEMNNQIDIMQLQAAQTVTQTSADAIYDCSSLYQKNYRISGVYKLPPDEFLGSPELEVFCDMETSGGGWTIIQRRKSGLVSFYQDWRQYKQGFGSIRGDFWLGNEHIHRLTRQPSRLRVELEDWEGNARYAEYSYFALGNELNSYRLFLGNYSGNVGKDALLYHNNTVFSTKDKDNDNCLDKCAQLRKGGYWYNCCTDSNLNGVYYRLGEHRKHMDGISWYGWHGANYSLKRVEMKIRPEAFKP

T4: Pext-01 (huANGTPL7-FLAG multimer) (human, UniProt O43827 27-346)
T4 construct: also called PExt-1; human wild type ANGPTL7 multimer; not shown: FLAG tag
T4 sequence: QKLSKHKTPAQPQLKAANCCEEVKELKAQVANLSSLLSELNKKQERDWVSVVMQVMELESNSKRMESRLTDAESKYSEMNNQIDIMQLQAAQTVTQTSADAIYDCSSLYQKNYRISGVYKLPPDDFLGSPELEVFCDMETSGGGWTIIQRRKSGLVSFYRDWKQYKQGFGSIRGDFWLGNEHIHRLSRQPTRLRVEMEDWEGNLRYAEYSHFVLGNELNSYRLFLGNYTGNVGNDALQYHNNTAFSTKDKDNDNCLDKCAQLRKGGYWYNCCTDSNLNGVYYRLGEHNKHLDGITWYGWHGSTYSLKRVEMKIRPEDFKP


Assays:
[1] = molecular target: T1, P60 (huANGPTL7-Fibrinogen-his); experiment: BLI Octet HTX; IgG on AHC sensor; P60 at 200 nM; 1:1 fit
Protocol: (§1) ANGPTL7 Antibody Kinetics. Experiments were conducted to determine the reactivity and dissociation constants (KD) of anti-ANGPTL7 antibodies with the human fibrinogen domain of the ANGPTL7 protein. Binding experiments were performed on Octet HTX (ForteBio) in 1×PBS, pH 7.4, 0.1 mg/ml BSA, 0.05% Sodium Azide, and 0.02 Tween 20. Antibodies at a concentration of 50 nM were loaded on pre-hydrated AHC biosensors for 5 min. The loaded sensors were dipped into monovalent P60 (huANGPTL7-Fibrinogen-his) at a concentration of 200 nM for 5 min association, followed by 10 min dissociation. […] Responses (nm) at the end of association were also determined (Table 2).

P66 (rabbit ANGPTL7-his) = molecular target: T2, P66 (rabbit ANGPTL7-his); experiment: BLI Octet HTX; IgG on AHC sensor; P66 at 200 nM; 1:1 fit
Protocol: (§2) Experiments were also conducted to determine the reactivity and dissociation constants (KA) of anti-ANGPTL7 antibodies with the rabbit ANGPTL7 protein. Binding experiments were performed on Octet HTX (ForteBio) in Rx PBS, pH 7.4, 0.1 mg/mi BSA, 0.05% Sodium Azide, and 0.02% Tween 20. Antibodies at a concentration of 50 nM were loaded on pre-hydrated AHC biosensors for 5 min. The loaded sensors were dipped into monovalent P66 (rabbit ANGPTL7-his) at a concentration of 200 nM for 5 min of association, followed by 10 min of dissociation. […] Responses (nm) at the end of association were also determined (Table 6).

[2] = molecular target: T3, muANGPTL7-his (R&D Systems); experiment: BLI Octet HTX; IgG on AHC sensor; muANGPTL7-his at 200 nM; 1:1 fit
Protocol: as §2, with “(KD)” for “(KA)”, “mouse” for “rabbit”, “1×PBS,” for “Rx PBS,”, “[…].” for “min.”, “muANGPTL7-his (R&D Systems)” for “P66 (rabbit ANGPTL7-his)”, “5).” for “6).”

[3] = molecular target: T4, Pext-01 (huANGTPL7-FLAG multimer); experiment: BLI Octet HTX; IgG on AHC sensor; Pext-01 at 100 nM; 1:1 fit; apparent KD
Protocol: Experiments were also conducted to determine the reactivity and dissociation constants (KD) of anti-ANGPTL7 antibodies with the human ANGPTL7 multimer protein. Binding experiments were performed on Octet HTX (ForteBio) in 1×PBS, pH 7.4, 0.1 mg/ml BSA, 0.05% Sodium Azide, and 0.02% Tween 20. Antibodies at a concentration of 50 nM were loaded on pre-hydrated AHC biosensors for 5 mi. The loaded sensors were dipped into Pext-01 (huANGTPL7-FLAG) at a concentration of 100 nM for 5 min of association, followed by 10 min of dissociation. […] Responses (nm) at the end of association were also determined (Table 7).

[4] = molecular target: T3, muANGPTL7-his (R&D Systems); experiment: BLI Octet HTX; IgG on AHC sensor; muANGPTL7-his at 200 nM
Protocol: as §2, with “(KD)” for “(KA)”, “mouse” for “rabbit”, “1×PBS,” for “Rx PBS,”, “[…].” for “min.”, “muANGPTL7-his (R&D Systems)” for “P66 (rabbit ANGPTL7-his)”, “5).” for “6).”

[5] = molecular target: T1, P60 (huANGPTL7-Fibrinogen-his); experiment: BLI Octet HTX; IgG on AHC sensor; P60 at 200 nM
Protocol: as §1

| Binder | Kd [1] [nM] | Kd (P66 (rabbit ANGPTL7-his)) [nM] | Response (P66 (rabbit ANGPTL7-his)) [nm] | Kd [2] [nM] | Response [2] [nm] | Response [3] [nm] | binding result [4] | Response [1] [nm] | Kd [3] [nM] | binding result [5] |
| --- | --- | --- | --- | --- | --- | --- | --- | --- | --- | --- |
| ATX-P-440 (antibody, human IgG1, kappa, N297A, V domains shown, Full chains (VH + hIgG1-Agly-Fc)) VH: EVQLVESGGGVVRPGGSLRLSCAASGFTFDDYGMSWVRQAPGKGLEWVSTINWNGGNTGYADSVKGRFTISRDNAKNSLYLQMNSLRAEDTALYYCARDEGAAGLGYYFDYWGQGTLVTVSS VL: DIQMTQSPSTLSASVGDRVTITCRASQSISSWLAWYQQKPGKAPKLLIYATSSLQSGVPSRFSGSGSGTDFTLTISSLQPEDFATYYCQQSYSTPITFGQGTRLEIKR | 55.8 | 6.27 | 0.57 | 55.3 | 0.21 | 0.61 | – | – | – | – |
| ATX-P-425 (antibody, human IgG1, kappa, N297A, V domains shown, Full chains (VH + hIgG1-Agly-Fc)) VH: EVQLVESGGGLVKPGGSLRLSCAASGFTFSTYSMNWVRQAPGKGLEWVSSITSSSSYMFYADSVMGRFTISRDNAKNSLYLQMNSLRAEDTADYYCARDSNWGEAFDIWGQGTMVTVSS VL: DIQMTQSPSSLSASVGDRVTITCRASQGIRIDLGWFQQKPGKAPKRLIYAASSLPSGVPSRFSGSGSGTEFTLTISSLQPEDFATYYCLQHNSYPWTFGQGTKVEIKR | 305 | 2.38 | 0.95 | – | – | 0.83 | – | – | – | – |
| ATX-P-424 (antibody, human IgG1, kappa, N297A, V domains shown, Full chains (VH + hIgG1-Agly-Fc)) VH: EVQLVESGGGLVKPGGSLRLSCAASGFTFSSYSMNWVRQAPGKGLEWVSSITSSSYIFYADSLKGRFTISRDNAKNSLFLQMNSLRAEDTAVYYCARDSNWGEAFDIWGQGTMVTVSS VL: DIQMTQSPSSLSASVGDRVTITCRASQGIRNDLGWYQQKPGKAPKRLIYAASSLPSGVPSRFSGSGSGTEFTLTISSLQPEDFAIYYCLQHNSYPWTFGQGTKVEIKR | 106 | 4.65 | 0.93 | – | 0.14 | 0.76 | no binding (tested: 200 nM) | – | – | – |
| ATX-P-423 (antibody, human IgG1, kappa, N297A, V domains shown, Full chains (VH + hIgG1-Agly-Fc)) VH: QVQLVESGGGVVQPGRSLRLSCAASGFTFSSYGMHWVRQAPGKGLEWVSHITYDGSDKYYGDSVKGRFTISRDNSKNTLYLQMNSLRAEDTAVYYCAKDGYSSGWWYFDYWGQGTLVTVSS VL: DIQMTQSPSSLSASVGDRVTITCRASQGIRNDLGWYQQKPGKAPKRLIYAASSLQSGVPSRFSGSGSGTEFALTISSLQPEDFATYYCLQHNSYPLTFGGGTKLEIKR | 18.3 | 6.69 | 1.02 | – | 0.14 | 0.87 | no binding (tested: 200 nM) | – | – | – |
| ATX-P-427 (antibody, human IgG1, kappa, N297A, V domains shown, Full chains (VH + hIgG1-Agly-Fc)) VH: EVQLVESGGGVVRPGGSLRLSCAASGFSFDDYGMSWVRQVPGKGLEWVSGINWNGGSTGYADSVKGRFTISRDNAKNSLYLQMSSLRAEDTALYYCASYSGSFRDAFDIWGQGTMVTVSS VL: AIQMTQSPSSLSASVGDRVTITCRASQGIRNDLGWYQQKPGKAPKLLIYAASSLQSGVPSRFSGSGSGTDFTLTISSLQPEDFATYYCLQDYNYPYTFGQGTKLEIKR | 65.1 | 3.21 | 0.93 | 10.3 | 0.48 | 0.82 | – | 0.5 | – | – |
| ATX-P-432 (antibody, human IgG1, kappa, N297A, V domains shown, Full chains (VH + hIgG1-Agly-Fc)) VH: QVQLVQSGAEVKKPGASVKVSCKASGYTFTDYYIHWVRQAPGPGLEWLGWINPNTGATKYAQKFQGRVTMTRDTSISTAYMELSRLRSDDTAVYYCAREDNGNYGDVFDIWGQGTMVTVSS VL: not shown | – | – | – | – | 0.03 | – | no binding (tested: 200 nM) | – | – | – |
| ATX-P-439 (antibody, human IgG1, kappa, N297A, V domains shown, Full chains (VH + hIgG1-Agly-Fc)) VH: not shown VL: DIQMTQSPSSVSASVGDRVTITCRASQGISSWLAWYQQKPGKAPKLLIYAASSLQSGVPSRFSGSGSGTDFTLTISSLQPEDFATYYCQQANSFPWTFGQGTKVDIKR | – | 2.95 | 0.92 | – | 0.53 | 0.87 | – | 0.28 | 12.8 | – |
| ATX-P-442 (antibody, human IgG1, kappa, N297A, V domains shown, Full chains (VH + hIgG1-Agly-Fc)) VH: QITLKESGPTLVKPTQTLTLTCTFSGFSLSTSGVGVGWIRQPPGKALEWLALIYWNDDKRYSPSLKSRLTITKDTSKNLVVLTMTNMDPVDTATYYCARDYGDYWFFDLWGRGTPVTVSS VL: DIQMTQSPSSLSASVGDRVTITCRASQGISSYLAWYQQKPGKAPKLLIYAASSLQSGVPSRFSGSGSGTDFTLTISSLQPEDFATYYCQQSFSTPLTFGGGTKLEIKR | 4.62 | 3.38 | 0.95 | – | 0.32 | – | – | 0.69 | – | – |
| ATX-P-448 (antibody, human IgG1, kappa, N297A, V domains shown, Full chains (VH + hIgG1-Agly-Fc)) VH: QVQLVESGGGVVQPGRSLRLSCAASGFPFSSYGMHWVRQAPGKGLEWVAVMSYDGINGYYADSVKGRFTISRDNSKNTLYLQMNSLRAEDTAVYYCARLVYADDAFDIWGQGTTVTVSS VL: EIVLTQSPATLSLSPGERATLSCRASQSVSSYLAWYQQKPGQAPRLLIYDASNRATGIPARFSGSGSGTDFTLTISSLEPEDFAVYYCQQRSNWPLTFGGGTKVEIKR | 4.69 | 0.949 | 0.75 | – | 0.69 | 0.58 | – | – | – | – |
| ATX-P-445 (antibody, human IgG1, kappa, N297A, V domains shown, Full chains (VH + hIgG1-Agly-Fc)) VH: EVQLVESGGGLVQPGGSLRLSCAASGFTFSSHDMHWVRQVTGKGLEWVSGIDPAGDTYYPDSVKGRFTISRENAKNSLYLQMNSLRAGDTAVYYCTRGEASSSSEDAFDIWGQGTMVTVSS VL: not shown | – | – | – | – | 0.01 | 0.8 | no binding (tested: 200 nM) | 0.12 | – | no binding (tested: 200 nM) |
